The record followed here is patent publication CN115028713A (JIANGSU DONGKANG BIOMEDICAL TECH CO LTD, dated 2022).

As a reminder, the EC50 is the concentration that produces a half-maximal response. A high value points to a need for much substance.

This assay deals with T1, SARS-COV2-N-B1617 (N protein of SARS-CoV-2 variant B1617) (SARS-CoV-2 variant B1617).
T1 construct: also called 冠状病毒SARS-COV2变异株B1617

B1: 单克隆抗体OP2 (anti-SARS-CoV-2 N protein monoclonal antibody OP2) (antibody, V domains shown)
VH: DVQLVESGGGLVQPGGSRKLSCAASGSTFSNFGMHWVRQAPEKGLEWVAYISSASSIIYYADTVKGRFTISRDNPKNTLFLQMTSLRSEDTAMYYCARSAMDYWGQGTSVTVSS
VL: DIVLTQSPASLAVSLGQRATISCKASQSVNYSGDSYMNWFQQKPGQPPKLLIYAASNLESGIPARFSGSGSGTDFTLNIHPVEEEDAATYYCQQSEEQPYTFGGGTKLEIK
notes: also called 抗N蛋白的抗体
With B1, the EC50 amounted to 0.0166 mg/L.
